This is an account of results in article PMC5352738, “Characterization of three pyranose dehydrogenase isoforms from the litter-decomposing basidiomycete Leucoagaricus meleagris (syn. Agaricus meleagris)” (Applied Microbiology and Biotechnology, 2016).

In this series the test system is CCn1c(=N[N]c2sc3cc(S(=O)(=O)O)ccc3[n+]2CC)sc2cc(S(=O)(=O)O)ccc21. In words: purified protein. Particulars: pH 4.0; 30.0 °C.
AmPDH1 (Macropsalliota meleagris): the Michaelis-Menten constant (Km) is 79.1 ± 9 µM and the kcat/Km worked out at 94600 M⁻¹ s⁻¹.
On to AmPDH2 (Macropsalliota meleagris), for which the Km turned out to be 109 ± 10 µM and the kcat/Km was determined as 38900 M⁻¹ s⁻¹.
The like results for AmPDH3 (Macropsalliota meleagris) were, in that order, 13.2 ± 1.2 µM and 532000 M⁻¹ s⁻¹.

A word on the Km: it is the substrate concentration at which the rate is half of its maximum. The kcat/Km is the second-order rate constant that governs catalysis at low substrate concentration.
